# Molecular target: B.1.1.529 (BA.1) S1 + S2 Trimer-His Recombinant Protein (SARS-CoV-2) (UniProt P0DTC2)
# Assay: cryo-EM structure
substance,measurement,value
B.1.1.529 (BA.1) S1 + S2 Trimer-His Recombinant Protein (from UniProt P0DTC2 324-533) (natural protein),stoichiometry N,3
